Like-named read-outs stand apart in the source and are kept apart here.

Test [1] has as its target T1, purified recombinant CI-M6PR (domains 1-9) protein (human, UniProt P11717 41-1365, limits assumed).
T1 construct: domain: domains 1-9; also called human CI-M6PR; wild-type human CI-M6PR
Briefly: BLI (GatorPrime), antibody on anti-mouse IgG Fc sensor, CI-M6PR (domains 1-9) in solution, global 1:1 fit.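 Further: human CI-M6PR tested at a range of concentrations against captured antibodies, measured at 30 °C, analyte diluted in PBS carrying Tween-20, BSA and NaN3.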

Test [2] addresses T1, purified recombinant CI-M6PR (domains …). Nature of the test: ELISA on human M6PR, Abs 450nm, antibody about 0.0005-1 ug/mL. A general note: ELISA stands for enzyme-linked immunosorbent assay.
Test [3] deals with human CI-M6PR on K562 cells (human, UniProt P11717 41-2491). Nature of the test: cell-based or functional assay.
The target in test [4] is T2, Recombinant human M6PR ECD-His (human, UniProt P11717 41-2304).
T2 construct: extracellular domain; also called recombinant His-tagged human M6PR; human M6PR antigen; not shown: His tag
Briefly: Octet BLI; mIgG from hybridoma supernatant on anti-mouse biosensor, His-tagged human M6PR analyte. (Biolayer interferometry detects binding as a change in optical thickness at a sensor tip.)

In test [5] the target is T1, purified recombinant CI-M6PR (domains …). Briefly: ELISA on human M6PR, Abs 450nm, antibody about 0.0005-1 ug/mL. The source holds these as a separate data set.
The target is the same in test [6]. The description is as above. This is another data set of the same source.
The target is the same in test [7]. The description is as above. The source holds these as a separate data set.
For test [8] the target is unchanged. Described as above. This is another data set of the same source.
For test [9] the target is unchanged. The test is described as above. The source holds these as a separate data set.

B1: 06D1 (antibody, V domains shown)
VH: EVQLQQSGAELVRPGASVKLSCTASGFNIKDDYMHWVKQRPEQGLEWIGWIDPENGDTEYASKFQGKATITADTSSNTAYLQLSSLTSEDTAVYYCTTVAPGYYAMDYWGQGTSVTVSS
VL: ENVLTQSPAIMSASPGEKVTMTCRASSSVSSSYLHWYQQKSGASPKLWIYSTSNLASGVPARFSGSGSGTSYSLTISSVEAEDAATYYCQQYSGFTFGSGTKLEIK
notes: also called Clone # 11
Consider B1, for which, in [1], the Kd (as a rule, the constant that tells how readily two partners part at equilibrium) amounted to 45.1 nM; the off-rate constant (koff) (commonly the first-order rate constant of dissociation) was found to be 0.0111 s⁻¹; the kon (as a rule, the rate constant with which the complex forms) stood at 245000 M⁻¹ s⁻¹. Besides, the 50% effective concentration (EC50 (read off the curve)) (in general, the concentration that produces a half-maximal response) in [2] is around 0.01 µg/mL. Further, the “Uptake pHrodo (MFI)” value in test [3] turned out to be 22400 MFI. In addition, the Kd in test [4] turned out to be 17.1 nM.

B2: 06H10 (antibody, V domains shown)
VH: EVQLQQSGAELVRPGASVKLSCTASGFNIKDDYMHWVKQRPEQGLEWIGWIDPENGDTEYASKFQGKATITADTSSNTAYLQLSSLTSEDTAVYYCTTVAPYYYAMDYWGQGTSVTVSS
VL: QIVLTQSPAIMSASLGEEITLTCSASSSVSYMHWYQQKSGTSPKLLIYSTSNLASGVPSRFSGSGSGTFYSLTISSVEAEDAADYYCHQWSSYHTFGGGTKLEIK
Turning to B2, the “Uptake pHrodo (MFI)” value in test [3] was found to be 65800 MFI.

B3: 06F1 (antibody, V domains shown)
VH: EVQLQQSGAELVRPGASVKLSCTASGFNIKDDYMHWVKQRPEQGLEWIGWIDPENGDTEYASKFQGKATITADTSSNTAYLQLSSLTSEDTAVYYCTNYYGSSPFDYWGQGTTLTVSS
VL: QIVLTQSPAIMSAFLGERVTMTCTASSSVSSRYLHWYQQKPGSSPKLWIYSTSNLASGVPARFSGSGSGTSYSLTISSMEAEDAATYYCHQYHRSPLTFGAGTKLELK
notes: also called Clone # 67
As for B3, the “Uptake pHrodo (MFI)” value in test [3] stood at 34200 MFI. In addition, the Kd in test [4] was 17.3 nM.

B4: 18G4 (antibody, V domains shown)
VH: EVKLMESGGGLVQPGASLRLSCAASGFTFTDYYMSWVRQPPGKAPEWLALIRNKANGYTTEYNASVKGRFTISRDNSQNILYLQMNTLRTEDSATYYCVRGGFAYWGQGTLVTVSA
VL: QAVVIQESALTTSPGETVTLTCRSSTGAVTTSHYAIWVQEKPDHLFTGLIGGTNNRVPGVPARFSGSLIADKAALTITGAQTEDEAIYFCALWYTNQFIFGSGTKVTVL
notes: also called Clone # 45
Regarding B4, in [1], the Kd is 13 nM, the koff turned out to be 0.000616 s⁻¹ and the on-rate constant (kon) stood at 47200 M⁻¹ s⁻¹. Also, the “Uptake pHrodo (MFI)” value in test [3] stood at 10400 MFI. Besides, in test [5], the “EC50 (read off the curve)” value is around 0.01 µg/mL. The Kd in test [4] was found to be 8.74 nM.

B5: 11B12 (antibody, V domains shown)
VH: QVQLQQSGPELVKPGASVKISCKASGYSFTSYYIHWVKQRPGQGLEWIGWIYPGSGNTKYNEKFKGKATLTADTSSSTAYMQLSSLTSEDSAVYYCARGNWHWYFDVWGTGTTVTVSS
VL: EIVLTQSPALMAASPGEKVTITCSVSSSISSSNLHWYQQKSETSPKPWIYGTSNLASGVPVRFSGSGSGTSYSLTISSMEAEDAATYYCQQWSSYPLTFGAGTKLELK
notes: also called Clone # 75
Regarding B5, in test [1], the Kd worked out at 237 nM, the koff is 0.0112 s⁻¹ and the on-rate constant (kon) amounted to 47400 M⁻¹ s⁻¹. In [3], the “Uptake pHrodo (MFI)” value turned out to be 43000 MFI. The equilibrium dissociation constant (Kd) in [4] was found to be 90.6 nM.

B6: 43C8 (antibody, V domains shown)
VH: EIQLQQSGPELVKPGASVKMSCKASGYTFTDYVISWVKQRTGQGLEWIGEIYPGSHTYYNEKFKGKATLTADKSSNTAYMQLSSLTSEDSAVYFCALTAGAMDYWGQGTSVTVSS
VL: NIMMTQSPSSLAVSAGEKVTMSCKSSQSVLYSSNQKNYLAWYQQKPGQSPKLLIYWASTRESGVPDRFTGSGSGTDFTLTISSVHAEDLAVYYCHQYLSSYTFGGGTKLEIK
notes: also called Clone # 28
On to B6, for which, in test [1], the Kd was determined as 6.33 nM, the koff turned out to be 0.00104 s⁻¹ and the kon is 164000 M⁻¹ s⁻¹. Besides, in test [6], the concentration giving a half-maximal response (EC50 (read off the curve)) was around 0.02 µg/mL. Besides, the “Uptake pHrodo (MFI)” value in test [3] stood at 30800 MFI. For the same molecule, the Kd in test [4] is 5.27 nM.

B7: 45A12 (antibody, V domains shown)
VH: QVQLQQSGAELMKPGASVKISCKATGYTFSTYWIEWVKQRPGHGLEWIGEILPGSGSTNYNEKFKGKATFTADASSNTAYMQLSSLTSEDSAVYYCARDGGAMDYWGQGTSVTVSS
VL: NIMMTQSPSSLAVSAGEKVTMSCKSSQRVLYSSNQKNYLAWYQQKPGQSPKLLIYWASTRESGVPDRFTGSGSGTDFTLTISTVQPEDLAVYYCHQYLSSRTFGGGTKLEIK
notes: also called Clone # 36
As for B7, in test [1], the Kd worked out at 108 nM, the off-rate constant (koff) came to 0.00872 s⁻¹ and the kon was 81000 M⁻¹ s⁻¹. For the same molecule, in test [7], the “EC50 (read off the curve)” value was around 0.01 µg/mL. Also, the “Uptake pHrodo (MFI)” value in [3] was 36000 MFI. The Kd in test [4] is 30 nM.

B8: 08D8 (antibody, V domains shown)
VH: QVQLQQPGAELVKPGASVKLSCKASGYTFTSYWMQWVKQRPGQGLEWIGEIDPSDSYTNYNQKFKGKATLTVDTSSSTAYMQLSSLTSEDSAVYYCARGDYYGSSSWFAYWGQGTLVTVSA
VL: DIVMTQAAPSVPVTPGESVSISCRSSKSLLHSNGNTYLYWFLQRPGQSPQLLIYRMSNLASGVPDRFSGSGSGTAFTLRISRVEAEDVGVYYCMQHLEYPFTFGAGTKLELK
notes: also called Clone # 84
As for B8, in test [1], the equilibrium dissociation constant (Kd) worked out at 351 nM, the koff turned out to be 0.00185 s⁻¹ and the association rate constant (kon) is 5250 M⁻¹ s⁻¹. For the same molecule, the “Uptake pHrodo (MFI)” value in test [3] was determined as 10900 MFI. Also, the Kd in test [4] stood at 259 nM.

B9: 06D12 (antibody, V domains shown)
VH: QVQLQQSGAELMKPGASVKLSCKATGYTFTGYWIEWVKQRPGHGLEWIGEILPGSGSTNYNEKFKGKATFTADTSSNTAYMQLSSLTTEDSAIYYCAYTVVATDWYFDVWGTGTTVTVSS
VL: ENVLTQSPAIMSASLGEKVTMSCRASSSVNYMYWYQQKSDASPKLWIYYTSNLAPGVPARFSGSGSGNSYSLTISSMEGEDAATYYCQQFTSSPWTFGGGTKLEIK
notes: also called Clone # 10
In the case of B9, the “Uptake pHrodo (MFI)” value in test [3] is 47000 MFI. Further, in [4], the Kd was determined as 9.56 nM.

B10: 12D5 (antibody, V domains shown)
VH: QVQLQQPGAELVKPGASVKLSCKASGYTFTNYWMHWVKQRPGQGLEWIGMIHPNSGSTNYNEKFKSKATLTVDKSSSTAYMQLSSLTSEDSAVYYCARPHGYPFGYWGQGTTLTVSS
VL: ENVLTQSPAIMSASLGEKVTMSCRASSSVNYMYWYQQKSDASPKLWIYYTSNLAPGVPARFSGSGSGNSYSLTISSMEGEDAATYYCQQFTSSPYTFGGGTKLEIK
notes: also called Clone # 26
On to B10, for which the “EC50 (read off the curve)” value in test [8] was around 0.01 µg/mL. In test [1], the Kd amounted to 184 nM, the koff is 0.0123 s⁻¹ and the kon is 66700 M⁻¹ s⁻¹. The “Uptake pHrodo (MFI)” value in test [3] turned out to be 35800 MFI. Also, in [4], the equilibrium dissociation constant (Kd) stood at 12.2 nM.

B11: 17F11 (antibody, V domains shown)
VH: EVQLQQSGPELVKPGASVKMSCKASGYTFTDYNMHWVKQSHGKSLEWIGYINPNNGGTNYNQKFQGKATLTVNKSSRTAYMELRSLTSEDSAVYYCVRFYYGSRYYAMDYWGQGTSVTVSS
VL: DIVMTQSPATLSVTPGDRVSLSCRASQSISDYLHWYQQKSHESPRLLIKYASQSISGIPSRFSGSGSGSDFTLSINSVEPEDVGVYYCQNGHSFPYTFGGGTKLEIK
notes: also called Clone # 55
With B11, in [1], the Kd was determined as 10 nM, the off-rate (koff) stood at 0.000454 s⁻¹ and the on-rate (kon) came out at 45300 M⁻¹ s⁻¹. Further, in test [3], the “Uptake pHrodo (MFI)” value is 12500 MFI. The “EC50 (read off the curve)” value in test [9] is around 0.01 µg/mL. Moreover, in [4], the Kd stood at 10.5 nM.

B12: 53B11 (antibody, V domains shown)
VH: EVQLQQSGPELVKPGTSMKISCKASGYSFTDYTVNWVKQSHGKNLEWIGLINPYNGGTSYNQKFKGKATLTVDKSSSTAYMELLSLTSEDSAVYYCARWGYYYATSYYFAMDYWGQGTSVTVSS
VL: DIQMNQSPSSLSASLGDTITITCHASQNINVWLSWYQQKPGNIPKLLIYKASNLHTGVPSRFSGSGSGTGFTLTISSLQPEDIATYYCQQGQSYPWTFGGGTKLEIK
notes: also called Clone # 33
In the case of B12, in test [1], the Kd worked out at 3.44 nM, the off-rate (koff) was determined as 0.000445 s⁻¹ and the kon stood at 129000 M⁻¹ s⁻¹. For the same molecule, the “Uptake pHrodo (MFI)” value in test [3] amounted to 9700 MFI. The equilibrium dissociation constant (Kd) in [4] stood at 2.59 nM.

B13: 16H4 (antibody, V domains shown)
VH: QVQLKQSGPGLVQPSQSLSITCTASGFSLTSYGVHWVRQSPGKGLEWLGVIWSGGSTDYSAAFISRLSISKDSSKSQVFFKMNSLQADDTAIYYCARNLPITSYDPSSFYAMDYWGQGTSVTVSS
VL: DIQMTQTTSSLSASLGDRVTISCSASQGISNYLNWYQQKPDGTVKLLIYYTSSLHSGVPSRFSGSGSGTDYSLTISNLEPEDIATYYCQQYSKLPFTFGSGTKLEIK
notes: also called Clone # 95
Turning to B13, the “Uptake pHrodo (MFI)” value in test [3] is 13400 MFI. In addition, in test [4], the Kd worked out at 615 nM.

B14: 21D5 (antibody, V domains shown)
VH: QVQLKQSGPGLVQPSQSLSITCTVSGFSLTRYGVHWVRQSPGKGLEWLGVIWRGGSTDYNAAFMSRLSITKDNSKSQVFFKMNSLQADDTAIYYCAKEGTGILDSWGQGTTLTVSS
VL: DIVLTQSPASLAVSLGQRATISCRASKSVSTSGYSYMHWYQQKPGQPPTLLIYLASNLESGVPARFSGSGSGTDFTLNIHPVEEEDAATYYCQHSRELPYTFGGGTKLEIK
notes: also called Clone # 78
Consider B14, for which, in test [1], the equilibrium dissociation constant (Kd) was 62.2 nM, the koff is 0.000789 s⁻¹ and the association rate constant (kon) worked out at 12700 M⁻¹ s⁻¹. The “EC50 (read off the curve)” value in test [7] is around 0.02 µg/mL. Also, the “Uptake pHrodo (MFI)” value in [3] is 9980 MFI. For the same molecule, the Kd in test [4] worked out at 43.1 nM.
